According to a protein production outcome set (Wang et al. 2014):

Assay: label from the status in PepcDB records

Sequence	protein production
MRTLTTLLGNSQKLDGGAMFGNAPRALWSRWMQPDAENRIDLGCRALLVRDGERNVLVEAGIGAFFPPALRQRYGVQEERHVLLDSLAAVGLDDADIDVVLLTHLHFDHAGGLLAAWEEGQPARLLFPNAHFVSGRRHWQRARQPHPRDRASFVPELLDLLQASGRLELLDDGERSAHLGEGWRFHFSEGHTPGQMLPEIAMPDGPVVFSGDLIPGAPWVHLPLTMGYDRFPEGLIEEKERLLDSLIARNGRLVFTHDPCVAMGRVRRDEQERYSLYDTLERVENLEA	failed
MAKKRSKLEIIQAILEACKSGSPKTRIMYGANLSYALTGRYIKMLMDLEIIRQEGKQYMLTKKGEELLEDIRKFNEMRKNMDQLKEKINSVLSIRQ	not failed
MGHHHHHHHHHHSSGHIDDDDKHMEVSVLIPAAGNGLRLGRGPKAFLQVGGRTLLEWTLAAFRDAAEVLVALPPGAEPPKGLGAVFLEGGATRQASVARLLEAASLPLVLVHDVARPFVSRGLVARVLEAAQRSGAAVPVLPVPDTLMAPEGEAYGRVVPREAFRLVQTPQGFFTALLREAHAYARRKGLEASDDAQLVQALGYPVALVEGEATAFKITHPQDLVLAEALARVWSA	not failed
MSHRRDYGSDAVHVRITHDPPPENCFPNSGDSSVWATEDDYSRVWAINSDGAESPSKKTRSSSSSEIGKSFFKTKLCFKFRAGTCPYSASSCHFAHSAEELRLPPPPPPNWQETVTEASRNRESFAVSLGPRGNVAQTLKSPNWKTRICNKWQTTGYCPFGSHCHFAHGPSGKATAFFIY	failed
MSASLPRTSATALSSTSPLSARDAAPPKRPRFLRGGVAFSLSPNRDNGLVTFRLDTIGTGLVFADSLSNLTAALATQGGGGAAVVQAPPGTGKTTLVPPLLANLVSEQSPGRPRVVVTQPRRVAARSAARRLASLDGSQLGRRVGYTVRGESKVSQDTVVEFVTPGILLRRLLADPGLEDVSAVVLDEVHERGLETDLLVGMLAEVRELRGDITVVAMSATLDAARFATLLGTGLDGGDPAPVVDCPSALYPLKVQWVPAREHRLDARGVSRLFLDHVAHTAATTHAAALAPDADVDALVFLPGAREVSDVATRLRGLVSGNVEVLELHGQIGPEAQDRAVSGREPGGLPRIIVSTSLAESSLTVPGVRVVIDSGLSREPRRDAGRGMSGLVTVSCSRASADQRAGRAARQGPGTVVRCYDQQAYAAAPAHQTPEISVADLTSAALVLACWGAPGGVDLKLPDAPPAAAMNDAVEVLRELGAVTAEGTVTAVGKTLARIPADPRLARALLDGSAVAGRRAAAETVALVAGGQRAPGADLNKLLSALRSGSDPGARRFAEDVQRMETLVRKEAAAVVRPKAAADVTAGEATGLVVALAFPDRVARRVPGDGSTTYLLSSGTRAGLPSGSSLSGHDWLAVAEVSRAQGRDAAGTGAVIRSAATLSAELAEAAAPDLLTEKVEAKFDQGRVMARLERRLGAIVLSSTPVRPTAESGRRAVSEALEKTGLSMIGWSPAADALRRRLALLHRELGSPWPDVREAALLSRLEDWLGPELEAVATGAAVSSINLVDPLRRLLPWPDAARLEDLVPERLEVPSGSRVRIDYPEVSDRSSGDHDDGRPVVAVKLQECFGWDSTPRLLAGRVPVLFHLLSPAGRPLAVTDDLASFWSGPYSQVRAEMRGRYPRHPWPEDPWTAQATAKTKNRM	failed
MASEMKFAWLLAPDTYWDEKKTFITAALESGIDHIVDTADSGRIKKLGNLTLISPDEDADIVLVGRDGEGDGTLELPETLEYSRDIEMASELSESGRQVAAYVEIRSKAHEELARRLGRVVDYLILVGEDWKIIPLENIIADLQEEDVKLIAAVADVDEARVALETLEHGTDGVLIEPADISQIKDIAALLENIESETYELKPATITRIEPIGSGDRVCVDTCSIMGIGEGMLVGSYSQGLFLVHSESLESEYVASRPFRVNAGPVQAYVMVPGGRTRYLSELETGDEVIIVDRDGRSRSAIVGRVKIEKRPLMLVEAEYEGMKVRTLLQNAETIRLVNDKGEPVSVSELGEGDRVLVYFDESARHFGMAIKETIIEKLEHHHHHH	not failed
MNAADLTIWLVAGAGVLSFISPCSLPLYPSYLSYITGVSIQDLKENRGIMQKSAIIHTVFFMIGFSVIFYALGLSVSWIGITFSSNQKLIQQIGGIFIVLMGLFMTGLFQPKWLMAEKKVQYRSKSTGYIRSILVGMTYAAGWTPCVGPIFSAVLMLGATNPEGALLYITAYTLGFAVPFFVMAFFIGKVKWIVTYANVMMKIGGGMMIVTGILLYTNQMTKITAFFIRLFGGFTGF	failed
GDAHDQQALDYALYHLRIMTPAHGERSSIAAKGLTGEGYKGHVFWDTEVFLLPFHLFSDPTVARSLLRYRWHNLPGAQEKARRNGWQGALFPWESARSGEEETPEFAAINIRTGLRQKVASAQAEHHLVADIAWAVIQYWQTTGDESFIAHEGMALLLETAKFWISRAVRVNDRLEIHDVIGPDEYTEHVNNNAFTSYMVYYNVQQALSIARQFGCSDDAFIHRAEMFLKELRLPEIQPDGVLPQDDSFMTKPAINLAKYKAAAGKQTILLDYSRAEVNEMQILKQADVVMLNYMLPEQFSSASCLANLQFYEPRTIHDSSLSKAIHGIVAARCGLLTQSYQFWREGTEIDLGADPHSCDDGIHAAATGAIWLGAIQGFA	failed
MPLVSVVMPVYNSAATLGAAVRSVLTQTHGDLELLVTDDQSSDGSMDLLREFAAQDERVLPRSSPERGGAGRARNLAIERARGDYVAFLDSDDMWLPEKTEKQLAFAAEGTAPLTFTSYFKMDADHDGESTDWVPNGRVIRAREHVDYRAMLVQDHIGALTAMYDRNVLGTRLMPEMRKRQDYALWLSIMRDGADARGLAEPLAVYRAHQAGSLSSNKLSLVEYNWALYREHENLSVPRATRALAGAVWQSLRNSRILEHHHHHH	failed
MRKNHYPLRGYISTNRSKHNLKAHLILVCKYRKKLLQGDLNNFIKSVIDEIATQSNFIIIAMESDIDHLHLMVQYIPRMSISSIISRIKQITTYRVWRDKRFIPLLQKHFWKEKTFWTDGFFVCSIGEANPETIKAYIENQG	failed
MSQKKTSSRSSSVDDPATQYAKEVHSGERVAGPDIRNACARHLRDLEEGPKRGLTWDLDAANKAIRFYRTVLKLNGGEFEGLPFELLPWQKFIVGSIFGWKSSDGYRRFRVVYVESGKGSGKSPLAAGVGLTGLIADNEARAEIYAAATKKDQAMILFRDAVAMVQQSPELTKRLVCSGTGQNIWNLAYLKSGSFFRPISSDDGQSGPRPHMALIDEVHEHKTNMVVEMMRAGTKSRKQALIFMITNSGSNKRGPCWEYHEYGSRVASGALTDDGFFAYICSLDEGDDPIQDESCWFKSNPSLQDADLPGMKYLREQVTEARGMPSKEAMVRRLNFCEWTGAESPWISWDVWSQAEERVPMSLLRNRPSVGGLDLSSTTDLTSFVLLFYPTYEDPHWRLLPYFWIPDHELDKREARDKVPYAAWIKSRDLETTPGRAISKLHVLRRLQTICDFFQVDKIAFDRWRIEDMRQLMSEYDITLPELVEFGQGFKDMGPAVDEFERRLLGMIEQQPEEEGGAAEFFDDALPAEAVESLRHDGNPVMTWCAGNAVIVSDPANNRKADKAKATGRIDGIIAAIMATGISGAVSSGSSGSSIYDEGVGV	failed
MPQTLKPDTPAGTPAAGAVAFRRQVLPQDALLVRRVVESTGFFTPEEADVAQELVDEHLMHGAACGYHFVFATEDDDMAGYACYGPTPATEGTYDLYWIAVAPHRQHSGLGRALLAEVVHDVRLTGGRLLFAETSGIRKYAPTRRFYERAGFSAEAVLKAFYRAGDDKIIYRLEVA	not failed
MKKIATATIATAGIATFGLAHQDADAAENNNGYNPNDPYSYSYTYTIDQQGNYHYEWQGNWSPSQAQQGGQQNTGNQAVNNTQSNNNYNYNYNNNQSNQNTQSYTANNNAGGGLGASYSTSDRNVKVTTQNAPTTQSTSSNASSSSSSEALAGKSSGGSNLYTAGQCTYYVYDKVGGKIGSTWGNANNWATAAAADGYTVNNTPKAGAVMQTSQGAYGHVAYVESVNDDGSVKVSEMNYNGGPGVVSSRTISAGQAGSYNYIS	failed
AITLTCDEIEQAFLHDHIFNYYQPQFDFRSGAMVGVEALVRYEHPTHGMLSPAVFLPLIEQCGLHEKLFLTVLEKSVSALASIGADLQLSVNISQRNLQHSICDPILAICERYGFPASKLTLEMTEHEVYNGTPTSLANLARLRMYGVGLSIDDFGTGYASLGQLAQLPFTELKIDRSFVHDLATNYKHQQLTNMCLLLAQSLGLHCVVEGVENEETWQYLRQLGVDTCQGYYAAKP	failed
